T1: VEGFR-3-Fc (UniProt P35916 25-328)
T1 construct: domain: first three Ig domains; conditioned supernatant of 293T cells; also called VEGFR-3-Fc fusion protein; not shown: Fc fragment of the pIg vector
T1 sequence (looked up): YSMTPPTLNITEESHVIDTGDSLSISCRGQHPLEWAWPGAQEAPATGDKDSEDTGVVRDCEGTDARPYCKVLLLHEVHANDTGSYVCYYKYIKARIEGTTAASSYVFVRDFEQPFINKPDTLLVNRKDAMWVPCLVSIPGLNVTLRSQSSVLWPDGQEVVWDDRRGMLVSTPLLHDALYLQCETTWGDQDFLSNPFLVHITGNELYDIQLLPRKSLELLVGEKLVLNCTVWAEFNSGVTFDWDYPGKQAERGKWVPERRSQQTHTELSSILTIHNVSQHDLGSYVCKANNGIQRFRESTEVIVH


Legend:
Assay in all cases: receptor-Fc IP
VEGFR-3-Fc = biological target: T1, VEGFR-3-Fc
How it was run: (§1)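 Binding of ligand from sample supernatant measured by pentahistidine-antibody immunoprecipitation. IP mix: PBS with 1.5% BSA, 0.06% Tween 20, 3 μg/ml heparin and 400 ng/ml fusion protein, added 1:2 to sample supernatant.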

VEGFR-1-Fc = biological target: T2, VEGFR-1-Fc (UniProt P17948 27-338)
T2 construct: domain: first three Ig domains; expressed in Drosophila S2 cells, purified on Protein A sepharose; also called VEGFR-1-Fc fusion protein; not shown: Fc fragment from the Signal-pIgPlus vector
How it was run: as §1

VEGFR-2-Fc = biological target: T3, VEGFR-2-Fc (UniProt P35968 20-322)
T3 construct: domain: first 3 Ig domains; conditioned supernatant of 293T cells; also called VEGFR-2-Fc fusion protein; not shown: Fc fragment of the pIg vector
How it was run: as §1

T2 sequence (P17948 27-338): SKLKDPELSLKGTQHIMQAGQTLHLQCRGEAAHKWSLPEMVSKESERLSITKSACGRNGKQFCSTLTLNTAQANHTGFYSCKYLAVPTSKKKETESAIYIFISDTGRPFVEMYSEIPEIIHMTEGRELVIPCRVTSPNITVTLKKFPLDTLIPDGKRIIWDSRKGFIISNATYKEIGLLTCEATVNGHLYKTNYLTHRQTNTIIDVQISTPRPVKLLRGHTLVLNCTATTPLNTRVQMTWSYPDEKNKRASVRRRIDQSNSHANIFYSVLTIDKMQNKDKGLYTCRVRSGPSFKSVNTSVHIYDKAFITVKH
T3 sequence (P35968 20-322): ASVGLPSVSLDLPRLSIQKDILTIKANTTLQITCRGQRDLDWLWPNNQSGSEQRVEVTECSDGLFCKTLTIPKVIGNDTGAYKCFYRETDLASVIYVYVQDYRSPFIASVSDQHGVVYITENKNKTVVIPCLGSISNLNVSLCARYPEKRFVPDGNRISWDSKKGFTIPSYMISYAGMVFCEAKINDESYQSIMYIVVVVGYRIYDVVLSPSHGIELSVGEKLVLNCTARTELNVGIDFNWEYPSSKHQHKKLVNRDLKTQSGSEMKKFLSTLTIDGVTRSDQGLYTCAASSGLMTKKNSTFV

Binder | binding result (VEGFR-3-Fc) | binding result (VEGFR-1-Fc) | binding result (VEGFR-2-Fc)
72-10 (ligand) GQNHHEVVKSIDNEWRKTQCMPREVCIDVGKEFGVATNTFFKPPCVSVYRCGGCCNDEGLECMNTSTSYLSKTLFEITVPLSQGPKPVTISFLQHNKCECRPKKD | binds | no binding | binds
72-12 (ligand) GQNHHEVVKSIDNEWRKTQCMPREVCIDVGKEFGVATNTFFKPPCVSVYRCGGCCNSEGLQCMNTSTSYLSKTLFEITVPLSQGPKPVTISFLQHNKCECRPKKD | binds | no binding | binds
22-3 (ligand) AHYNTEILKSIDNEWRKTQCMPREVCIDVGKEFGVATNTFFKPPCVSVYRCGGCCNSEGLQCVPTEESNITMQIMRIKPHQGQHIGEMSFLQHNKCECRPKKD | binds | no binding | no binding
11-1 (ligand) GQNHHEVVKFMDVYQRSYCHPIETLVDIFQEYPDEIEYIFKPSCVPLMRCGGCCNDEGLECVPTEESNITMQIMRIKPHQGQHIGEMSFLQHNKCECRPKKDLVFEQKLISEEDLNSAVDHHHHHH | no binding | binds | binds
11-3 (ligand) GQNHHEVVKFMDVYQRSYCHPIETLVDIFQEYPDEIEYIFKPSCVPLMRCGGCCNSEGLQCVPTEESNITMQIMRIKPHQGQHIGEMSFLQHNKCECRPKKD | no binding | binds | binds
11-5 (ligand) GQNHHEVVKFMDVYQRSYCHPIETLVDIFQEYPDEIEYIFKPSCVPLMRCGGCCNDEGLECVPTEESNITMQIMRIKPHQGQHIGEMSFANHTSCRCMSKLD | no binding | binds | binds
11-7 (ligand) GQNHHEVVKFMDVYQRSYCHPIETLVDIFQEYPDEIEYIFKPSCVPLMRCGGCCNSEGLQCVPTEESNITMQIMRIKPHQGQHIGEMSFANHTSCRCMSKLD | no binding | binds | binds
22-4 (ligand) AHYNTEILKSIDNEWRKTQCMPREVCIDVGKEFGVATNTFFKPPCVSVYRCGGCCNSEGLQCMNTSTSYLSKTLFEIKPHQGQHIGEMSFLQHNKCECRPKKD | binds | no binding | binds
11-9 (ligand) GQNHHEVVKFMDVYQRSYCHPIETLVDIFQEYPDEIEYIFKPSCVPLMRCGGCCNDEGLECVPTEESNITMQIMRITVPLSQGPKPVTISFLQHNKCECRPKKD | no binding | binds | no binding
11-11 (ligand) GQNHHEVVKFMDVYQRSYCHPIETLVDIFQEYPDEIEYIFKPSCVPLMRCGGCCNSEGLQCVPTEESNITMQIMRITVPLSQGPKPVTISFLQHNKCECRPKKD | no binding | binds | binds
61-15 (ligand) GQNHHEVVKFMDVYQRSYCHPREVCIDVGKEYPDEIEYIFKPSCVPLMRCGGCCNSEGLQCVPTEESNITMQIMRITVPLSQGPKPVTISFANHTSCRCMSKLD | no binding | no binding | no binding
11-13 (ligand) GQNHHEVVKFMDVYQRSYCHPIETLVDIFQEYPDEIEYIFKPSCVPLMRCGGCCNDEGLECVPTEESNITMQIMRITVPLSQGPKPVTISFANHTSCRCMSKLD | no binding | binds | no binding
11-15 (ligand) GQNHHEVVKFMDVYQRSYCHPIETLVDIFQEYPDEIEYIFKPSCVPLMRCGGCCNSEGLQCVPTEESNITMQIMRITVPLSQGPKPVTISFANHTSCRCMSKLD | no binding | binds | binds
13-15 (ligand) GQNHHEVVKFMDVYQRSYCHPIETLVDIFQEYPDEIEYIFKPPCVSVYRCGGCCNSEGLQCVPTEESNITMQIMRITVPLSQGPKPVTISFANHTSCRCMSKLD | no binding | binds | no binding
41-13 (ligand) AHYNTEILKFMDVYQRSYCHPREVCIDVGKEYPDEIEYIFKPSCVPLMRCGGCCNDEGLECVPTEESNITMQIMRITVPLSQGPKPVTISFANHTSCRCMSKLD | no binding | no binding | no binding
41-15 (ligand) AHYNTEILKFMDVYQRSYCHPREVCIDVGKEYPDEIEYIFKPSCVPLMRCGGCCNSEGLQCVPTEESNITMQIMRITVPLSQGPKPVTISFANHTSCRCMSKLD | no binding | no binding | no binding
43-15 (ligand) AHYNTEILKFMDVYQRSYCHPREVCIDVGKEYPDEIEYIFKPPCVSVYRCGGCCNSEGLQCVPTEESNITMQIMRITVPLSQGPKPVTISFANHTSCRCMSKLD | no binding | no binding | no binding
61-9 (ligand) GQNHHEVVKFMDVYQRSYCHPREVCIDVGKEYPDEIEYIFKPSCVPLMRCGGCCNDEGLECVPTEESNITMQIMRITVPLSQGPKPVTISFLQHNKCECRPKKD | no binding | no binding | no binding
61-11 (ligand) GQNHHEVVKFMDVYQRSYCHPREVCIDVGKEYPDEIEYIFKPSCVPLMRCGGCCNSEGLQCVPTEESNITMQIMRITVPLSQGPKPVTISFLQHNKCECRPKKD | no binding | no binding | no binding
62-15 (ligand) GQNHHEVVKFMDVYQRSYCHPREVCIDVGKEFGVATNTFFKPPCVSVYRCGGCCNSEGLQCVPTEESNITMQIMRITVPLSQGPKPVTISFANHTSCRCMSKLD | no binding | no binding | no binding
63-11 (ligand) GQNHHEVVKFMDVYQRSYCHPREVCIDVGKEYPDEIEYIFKPPCVSVYRCGGCCNSEGLQCVPTEESNITMQIMRITVPLSQGPKPVTISFLQHNKCECRPKKD | no binding | no binding | no binding
63-13 (ligand) GQNHHEVVKFMDVYQRSYCHPREVCIDVGKEYPDEIEYIFKPPCVSVYRCGGCCNDEGLECVPTEESNITMQIMRITVPLSQGPKPVTISFANHTSCRCMSKLD | no binding | no binding | no binding
63-15 (ligand) GQNHHEVVKFMDVYQRSYCHPREVCIDVGKEYPDEIEYIFKPPCVSVYRCGGCCNSEGLQCVPTEESNITMQIMRITVPLSQGPKPVTISFANHTSCRCMSKLD | no binding | no binding | no binding
64-13 (ligand) GQNHHEVVKFMDVYQRSYCHPREVCIDVGKEFGVATNTFFKPSCVPLMRCGGCCNDEGLECVPTEESNITMQIMRITVPLSQGPKPVTISFANHTSCRCMSKLD | no binding | no binding | no binding
64-15 (ligand) GQNHHEVVKFMDVYQRSYCHPREVCIDVGKEFGVATNTFFKPSCVPLMRCGGCCNSEGLQCVPTEESNITMQIMRITVPLSQGPKPVTISFANHTSCRCMSKLD | no binding | no binding | no binding

Source: US20080058263A1 (published 2008)
